In patent US20260097113A1 (Pfizer, published 2026):

T1: RSV F protein of subtype A comprising a polypeptide of SEQ ID NO: 1 and a polypeptide of SEQ ID NO: 2 (RSV subtype A, UniProt P11209 137-513; P03420 26-109)
T1 construct: Stabilized prefusion F trimer made of three F2-F1 heterodimers; Produced recombinantly in CHO cells; also called RSV A; RSVA
T1 chain 1: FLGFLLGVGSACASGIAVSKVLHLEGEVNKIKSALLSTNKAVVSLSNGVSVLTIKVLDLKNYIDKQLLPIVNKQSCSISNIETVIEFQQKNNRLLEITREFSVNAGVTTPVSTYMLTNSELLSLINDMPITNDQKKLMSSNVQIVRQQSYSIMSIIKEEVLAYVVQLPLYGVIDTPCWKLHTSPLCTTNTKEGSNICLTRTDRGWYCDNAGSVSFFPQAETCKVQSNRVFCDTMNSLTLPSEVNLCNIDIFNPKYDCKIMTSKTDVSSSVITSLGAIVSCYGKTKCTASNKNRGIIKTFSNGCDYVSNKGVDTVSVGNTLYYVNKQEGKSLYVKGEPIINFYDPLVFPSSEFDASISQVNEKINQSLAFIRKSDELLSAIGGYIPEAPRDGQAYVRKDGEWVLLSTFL
T1 chain 2: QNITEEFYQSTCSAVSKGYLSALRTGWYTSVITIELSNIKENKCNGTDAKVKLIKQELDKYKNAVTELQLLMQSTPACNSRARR

B1: AM14 (trimeric prefusion specific antibody of the AM14 ELISA) (antibody, V domains shown)
VH: EVQLVESGGGVVQPGRSLRLSCAASGFSFSHYAMHWVRQAPGKGLEWVAVISYDGENTYYADSVKGRFSISRDNSKNTVSLQMNSLRPEDTALYYCARDRIVDDYYYYGMDVWGQGATVTVSS
VL: DIQMTQSPSSLSASVGDRVTITCQASQDIKKYLNWYHQKPGKVPELLMHDASNLETGVPSRFSGRGSGTDFTLTISSLQPEDIGTYYCQQYDNLPPLTFGGGTKVEIKR
notes: Antibody as used in the AM14 ELISA, detected with an HRP-labeled secondary antibody

Experiments:
[1] = target: RSV A + RSV B bivalent composition (RSV subtype A; RSV subtype B); experiment: AM14 Fab titration by SEC; Low-Fast cycle; 3 M 2-8°C (second value)
[2] = target: RSV A + RSV B bivalent composition (RSV subtype A; RSV subtype B); experiment: AM14 Fab titration by SEC; Low-Fast cycle; 3 M 40°C (second value)
[3] = target: RSV A + RSV B bivalent composition (RSV subtype A; RSV subtype B); experiment: AM14 Fab titration by SEC; Low-Fast cycle; 1 M 25°C
[4] = target: RSV A + RSV B bivalent composition (RSV subtype A; RSV subtype B); experiment: AM14 Fab titration by SEC; Target cycle; 8 M 2-8°C
[5] = target: RSV A + RSV B bivalent composition (RSV subtype A; RSV subtype B); experiment: AM14 Fab titration by SEC; High-Slow 2 cycle; 8 M 40°C
[6] = target: RSV A + RSV B bivalent composition (RSV subtype A; RSV subtype B); experiment: AM14 Fab titration by SEC; Low-Fast cycle; 3 M 40°C
[7] = target: RSV A + RSV B bivalent composition (RSV subtype A; RSV subtype B); experiment: AM14 Fab titration by SEC; High-Slow 1 cycle; T0 (second value)
[8] = target: RSV A + RSV B bivalent composition (RSV subtype A; RSV subtype B); experiment: AM14 Fab titration by SEC; composition of Table 14; Target lyophilization cycle, T0
[9] = target: RSV A + RSV B bivalent composition (RSV subtype A; RSV subtype B); experiment: AM14 Fab titration by SEC; High-Slow 1 cycle; 3 M 40°C
[10] = target: T1, RSV F protein of subtype A comprising a …; experiment: AM14 ELISA; F12 (pH 8, 100 mM NaCl, 9.0% sucrose); 2 wk 5°C
[11] = target: T1, RSV F protein of subtype A comprising a …; experiment: AM14 ELISA; F13 (pH 7, 100 mM NaCl, 4.5% sucrose); T0
[12] = target: T1, RSV F protein of subtype A comprising a …; experiment: AM14 ELISA; F10 (pH 7, 50 mM NaCl, 4.5% sucrose); 2 wk 5°C
[13] = target: T1, RSV F protein of subtype A comprising a …; experiment: AM14 ELISA; F13 (pH 7, 100 mM NaCl, 4.5% sucrose); 2 wk 25°C
[14] = target: T1, RSV F protein of subtype A comprising a …; experiment: AM14 ELISA; F10 (pH 7, 50 mM NaCl, 4.5% sucrose); 1 wk 5°C
[15] = target: T1, RSV F protein of subtype A comprising a …; experiment: AM14 ELISA; F3 (pH 8, 0 mM NaCl, 9% sucrose); 1 wk 25°C
[16] = target: T1, RSV F protein of subtype A comprising a …; experiment: AM14 ELISA; F15 (pH 6, 0 mM NaCl, 9% sucrose); 1 wk 25°C
[17] = target: T1, RSV F protein of subtype A comprising a …; experiment: AM14 ELISA; F3 (pH 8, 0 mM NaCl, 9% sucrose); 2 wk 5°C
[18] = target: T1, RSV F protein of subtype A comprising a …; experiment: AM14 ELISA; F14 (pH 7, 50 mM NaCl, 4.5% sucrose); 2 wk 5°C

Molecule | Prefusion Content (%) [1] [%] | Prefusion Content (%) [2] [%] | Prefusion Content (%) [3] [%] | Prefusion Content (%) [4] [%] | Prefusion Content (%) [5] [%] | Prefusion Content (%) [6] [%] | Prefusion Content (%) [7] [%] | Prefusion Content (%) [8] [%] | Prefusion Content (%) [9] [%] | AM14 prefusion content (%), relative to standard [10] [%] | AM14 prefusion content (%), relative to standard [11] [%] | AM14 prefusion content (%), relative to standard [12] [%] | AM14 prefusion content (%), relative to standard [13] [%] | AM14 prefusion content (%), relative to standard [14] [%] | AM14 prefusion content (%), relative to standard [15] [%] | AM14 prefusion content (%), relative to standard [16] [%] | AM14 prefusion content (%), relative to standard [17] [%] | AM14 prefusion content (%), relative to standard [18] [%]
AM14 Fab | 59 | 66 | 63 | 73 | 61 | 70 | 68 | 80 | 52 |  |  |  |  |  |  |  |  | 
B1 |  |  |  |  |  |  |  |  |  | 72 | 97 | 71 | 37 | 93 | 81 | 99 | 70 | 78
